On the set-up of the series: species or system humans. The note with it: in vivo.

Data on two substances can be found in patent US20150111820A1, “NOVEL USE OF INSULIN DERIVATIVES” (Novo Nordisk A/S, priority 2012, published 2015).

Description: The simulation was performed using the software WinNonlin Professional 5.3 (Pharsight Inc., Mountain View, Calif., USA).

On to “A14E, B25H, B29K(N^ε-octadecandioyl-γGlu-OEG-OEG), desB30 human insulin [Compound 6]”, for which the elimination half-life worked out at 52 h and the elimination rate constant was 0.013 h⁻¹.
As to “A14E, B25H, desB27, B29K(N^ε-(octadecandioyl-γGlu), desB30 human insulin [Compound 4]”, the “terminal half-life compared with Compound 6” value is reported as “almost the same terminal half-life”.
